We go through one substance from PMC6746316.

This assay addresses Xenopus tropicalis ALDH16B1 (Xenopus tropicalis). Description: SEC. For orientation: Size exclusion chromatography separates by hydrodynamic size, large species first.

As to Xenopus tropicalis ALDH16B1 (enzyme), the stoichiometry N is 2.

As a reminder, the stoichiometry N is a count of units in the complex or per binding partner.
